We go through one molecule from PMC9286290, “Active PD-L1 incorporation within HIV virions functionally impairs T follicular helper cells” (PLoS Pathogens, 2022).

This experiment concerns the target T1, recombinant full-length PD-L1 protein (Phe19-Thr290) (UniProt Q9NZQ7 19-290).
T1 construct: Programmed Death-Ligand 1 (PD-L1), residues Phe19-Thr290; also called flPD-L1; source: bought: Amsbio (TP710226)
As to the kind of experiment: BLI; FortéBio Octet K2; p17 or p24 immobilised on aminopropylsilane biosensors, saturated with BSA; association and dissociation 8 min each; PBS with 0.01% BSA and 0.002% Tween-20, 1,000 rpm; for kinetics flPD-L1 from 0 to 450 nM, BSA as reference, 1:1 model. Conditions: both partners purified.

T1 sequence (Q9NZQ7 19-290): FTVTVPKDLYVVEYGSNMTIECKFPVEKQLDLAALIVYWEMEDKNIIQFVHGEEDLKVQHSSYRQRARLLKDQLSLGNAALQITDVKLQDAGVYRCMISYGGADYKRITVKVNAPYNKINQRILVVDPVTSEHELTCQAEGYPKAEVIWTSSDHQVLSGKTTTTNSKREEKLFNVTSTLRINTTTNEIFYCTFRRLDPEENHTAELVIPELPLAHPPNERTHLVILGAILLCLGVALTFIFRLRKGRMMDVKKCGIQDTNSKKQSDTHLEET

B1: p17 HIV matrix protein (natural protein)
chain: GARASVLSGGELDRWEKIRLRPGGKKKYKLKHIVWASRELERFAVNPGLLETSEGCRQILGQLQPSLQTGSEELRSLYNTVATLYCVHQRIEIKDTKEALDKIEEEQNKSKKKAQQAAADTGHSNQVSQNY
Usually Kd stands for the constant that tells how readily two partners part at equilibrium. As to B1, the dissociation constant Kd came to 0.3 nM.
